How the values were obtained:
[1] = biological target: PD1 (human) (UniProt Q15116); experiment: flow cytometry on 293T-PD1 cells, antibody 10 ng/ml; average ± deviation
[2] = biological target: PD1 (human) (UniProt Q15116); experiment: flow cytometry on 293T-PD1 cells, antibody 10 ng/ml, second anti-human Fc antibody; the filing calls this staining non-specific

Chain of PD1 (human) (Q15116 25-288): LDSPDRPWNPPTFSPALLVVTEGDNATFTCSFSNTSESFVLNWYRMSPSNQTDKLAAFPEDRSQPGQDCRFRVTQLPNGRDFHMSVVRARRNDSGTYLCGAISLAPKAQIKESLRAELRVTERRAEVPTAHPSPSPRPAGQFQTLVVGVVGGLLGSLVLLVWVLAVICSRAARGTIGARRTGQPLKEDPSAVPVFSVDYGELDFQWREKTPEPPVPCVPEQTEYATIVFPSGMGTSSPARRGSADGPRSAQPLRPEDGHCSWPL

Binder | 293T-PD1 (%) [1] [%] | 293T-PD1 (%) [2] [%]
murine CH101 (antibody, V domains shown) VH: EVQLEESGPDLVKPSQSLSLTCTVTGYSITSGFAWHWLRQFPGNRLEWMGYIHYSGSTNYNPSLKSRISITRDTSKNQFFLQLNSVTTEDTATFYCARSDFWGQGTFVTVSS VL: DVVMTQTPLNLSVTFGQPVSISCTSSQSLLDRDGETFMNWLFQRPGQSPKRLIYLVSKLDFGVPDRFTGSGSGTDFTLKISRVEAEDLGIYYCWQGTHFPLTFGGGTKLEIK | 3.15 | 
CH101-huIgG1(L/S) (antibody, not shown: a dimerising Fc or GST) heavy: EVQLEESGPDLVKPSQSLSLTCTVTGYSITSGFAWHWLRQFPGNRLEWMGYIHYSGSTNYNPSLKSRISITRDTSKNQFFLQLNSVTTEDTATFYCARSDFWGQGTFVTVSS light: DVVMTQTPLNLSVTFGQPVSISCTSSQSLLDRDGETFMNWLFQRPGQSPKRLIYLVSKLDFGVPDRFTGSGSGTDFTLKISRVEAEDLGIYYCWQGTHFPLTFGGGTKLEIKRTVAAPSVFIFPPSDEQLKSGTASVVCLLNNFYPREAKVQWKVDNALQSGNSQESVTEQDSKDSTYSLSSTLTLSKADYEKHKVYACEVTHQGLSSPVTKSFNRGEC |  | 38.5

Source: patent publication US20250002581A1
